Experimental data published in publication doi:10.1101/756932 (bioRxiv, 2019).

What was measured:
[1] = target: ERK (endogenous, mouse ME cells) (mouse (endogenous in ESC-derived ME cells)) (UniProt Q63844); test: proximity ligation
[2] = target: Aurora B (endogenous, mouse cells) (mouse (endogenous in E14 ESCs), UniProt O70126 1-345); test: proximity ligation
Chain of Aurora B (endogenous, mouse cells) (O70126 whole entry): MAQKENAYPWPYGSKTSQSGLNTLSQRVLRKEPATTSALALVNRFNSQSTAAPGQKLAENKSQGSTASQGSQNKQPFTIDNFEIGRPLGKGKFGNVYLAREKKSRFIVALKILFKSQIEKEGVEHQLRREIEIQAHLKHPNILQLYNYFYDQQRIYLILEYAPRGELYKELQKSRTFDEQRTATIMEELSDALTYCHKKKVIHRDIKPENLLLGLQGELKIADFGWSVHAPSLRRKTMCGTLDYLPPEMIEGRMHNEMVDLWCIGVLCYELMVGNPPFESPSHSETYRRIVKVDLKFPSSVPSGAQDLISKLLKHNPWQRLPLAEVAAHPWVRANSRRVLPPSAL

Chain of ERK (endogenous, mouse ME cells) (mouse (endogenous in ESC-derived ME cells)) (Q63844 whole entry): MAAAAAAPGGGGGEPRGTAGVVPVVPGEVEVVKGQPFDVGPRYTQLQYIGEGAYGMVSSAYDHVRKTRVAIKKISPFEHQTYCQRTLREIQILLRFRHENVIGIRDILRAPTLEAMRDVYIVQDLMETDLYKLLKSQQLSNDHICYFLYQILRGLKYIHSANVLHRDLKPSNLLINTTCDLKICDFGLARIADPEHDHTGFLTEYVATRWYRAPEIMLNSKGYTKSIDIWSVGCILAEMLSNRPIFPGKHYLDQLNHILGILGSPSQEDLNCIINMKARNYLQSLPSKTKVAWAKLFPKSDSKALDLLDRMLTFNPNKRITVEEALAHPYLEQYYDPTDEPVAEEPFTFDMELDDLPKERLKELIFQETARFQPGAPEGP

fold reduction of PLA interaction foci in the cytoplasm against wild-type cells [1]: 3 fold
fold reduction of PLA interaction foci in the nucleus against wild-type cells [1]: 5 fold
fold increase of PLA interaction against wild-type cells [2]: ~3 fold
B1: CNOT3-T292A/S294A (endogenous, Cnot3-DM mouse ESCs) (natural protein, mouse (endogenous in E14 ESCs), UniProt Q8K0V4 1-751, looked up)
chain: MADKRKLQGEIDRCLKKVSEGVEQFEDIWQKLHNAANANQKEKYEADLKKEIKKLQRLRDQIKTWVASNEIKDKRQLIENRKLIETQMERFKVVERETKTKAYSKEGLGLAQKVDPAQKEKEEVGQWLTNTIDTLNMQVDQFESEVESLSVQTRKKKGDKDKQDRIEGLKRHIEKHRYHVRMLETILRMLDNDSILVDAIRKIKDDVEYYVDSSQDPDFEENEFLYDDLDLEDIPQALVATSPPSHSHMEDEIFNQSSSTPTSTTSSSPIPPSPANCTTENSEDDKKRGRSADAEVSQSPAKNGSKPVHSNQHPQSPAVPPTYPSGPPPTTSALSSTPGNNGASTPAAPTSALGPKASPAPSHNSGTPAPYAQAVAPPNASGPSNAQPRPPSAQPSGGSGGGSGGSSSNSNSGTGGGAGKQNGATSYSSVVADSPAEVTLSSSGGSSASSQALGPTSGPHNPAPSTSKESSTAAPSGAGNVASGSGNNSGGPSLLVPLPVNPPSSPTPSFSEAKAAGTLLNGPPQFSTTPEIKAPEPLSSLKSMAERAAISSGIEDPVPTLHLTDRDIILSSTSAPPTSSQPPLQLSEVNIPLSLGVCPLGPVSLTKEQLYQQAMEEAAWHHMPHPSDSERIRQYLPRNPCPTPPYHHQMPPPHSDTVEFYQRLSTETLFFIFYYLEGTKAQYLAAKALKKQSWRFHTKYMMWFQRHEEPKTITDEFEQGTYIYFDYEKWGQRKKEGFTFEYRYLEDRDLQ
